The record followed here is patent US20090158456.

For data set [1], the system named is recombinant GST-CcHQT fusion protein (pGTPc103a_HQT).
Data set [2] relates to recombinant GST-CcHCT fusion protein (pGTPc103a_HCT).

In the case of AcTEV protease, the “SDS PAGE gel electrophoresis and coomassie staining after AcTEV digestion” value in data set [1] and in data set [2] was “generate a smaller polypeptide with the expected molecular weight of the full length proteins from each of the GST-tagged "precursor" proteins” in each case.
